The text below walks through data of patent publication US20090111753A1, “Nogo-A Polypeptide Fragments, Variant Nogo Receptor-1 Polypeptides, and Uses Thereof” (Yale University, priority 2004, published 2009).

Usually Kd stands for the constant that tells how readily two partners part at equilibrium. A low value points to higher affinity.

Changes are numbered by the printed parent chain. No end group written: not given here. *: point of attachment. Biotin = O=C1N[C@H]2[C@H](CS[C@H]2CCCCC(=O)*)N1

The chains are these.
B1: AP-fused Amino-Nogo fragment a.a. 996-1018 (ligand)
chain: FSAELSKTSVVDLLYWRDIKKTG
modifications: also: alkaline phosphatase (AP) fusion
notes: not shown: alkaline phosphatase (AP), vector pcAP6
B2: AP-fused Amino-Nogo fragment a.a. 995-1015 (ligand)
chain: IFSAELSKTSVVDLLYWRDIK
modifications: also: alkaline phosphatase (AP) fusion
notes: as for B1
B3: AP-fused Amino-Nogo fragment a.a. 971-1018 (ligand)
chain: KVLVKEAEKKLPSDTEKEDRSPSAIFSAELSKTSVVDLLYWRDIKKTG
modifications: also: alkaline phosphatase (AP) fusion
notes: as for B1
B4: AP-fused Amino-Nogo-A-19 (a.a. 995-1013) (ligand)
chain: IFSAELSKTSVVDLLYWRD
modifications: also: alkaline phosphatase (AP) fusion
notes: also called Ng19; not shown: alkaline phosphatase (AP), vector pcAP6
B5: AP-fused Amino-Nogo fragment a.a. 995-1014 (ligand)
chain: IFSAELSKTSVVDLLYWRDI
modifications: also: alkaline phosphatase (AP) fusion
notes: as for B1
B6: AP-Amino-Nogo-A-24 (a.a. 995-1018) (ligand)
chain: IFSAELSKTSVVDLLYWRDIKKTG
modifications: also: alkaline phosphatase (AP) fusion
notes: also called Amino-Nogo-24; not shown: alkaline phosphatase (AP), vector pcAP6
B7: human NgR1 alanine mutant 67, 68, 95, 97 (receptor)
chain: CPGACVCYNEPKVTTSCPQQGLQAVPVGIPAASQRIFLHGAAISHVPAASFRACRNLTILWLHSNVLAAIAAAAFTGLALLEQLDLSDNAQLRSVDPATFHGLGRLHTLHLDRCGLQELGPGLFRGLAALQYLYLQDNALQALPDDTFRDLGNLTHLFLHGNRISSVPERAFRGLHSLDRLLLHQNRVAHVHPHAFRDLGRLMTLYLFANNLSALPTEALAPLRALQYLRLNDNPWVCDCRARPLWAWLQKFRGSSSEVPCSLPQRLAGRDLKRLAANDLQGCAVATGPYHPIWTGRATDEEPLGLPKCCQPDAADKASVLEPGRPASAGNALKGRVPPGDSPPGNGSGPRHINDSPFGTLPGSAEPPLTAVRPEGSEPPGFPTSGPRRRPGCSRKNRTRSHCRLGQAGSGGGGTGDSEGSGALPSLTCSLTPLGLALVLWTVLGPC
B8: human NgR1 alanine mutant 182, 186, 158, 160 (receptor)
chain: B7 chain with A41N, A42R, A69R, A71D, Y132A, Y134A, H156A, H160A
B9: human NgR1 alanine mutant 87, 89, 133, 136 (receptor)
chain: B7 chain with A41N, A42R, W61A, H63A, A69R, A71D, H107A, H110A
B10: human NgR1 alanine mutant 111, 113, 114, 138 (receptor)
chain: B7 chain with A41N, A42R, A69R, A71D, D85A, S87A, D88A, D112A

The first experiment concerns the target T1, NgR expressed on COS-7 cells (species not stated).
T1 chain: B7 chain with A41N, A42R, A69R, A71D
As to the kind of experiment: AP fusion on NgR-expressing COS-7 cells.
Details: not given
The source says:
Several alkaline phosphatase (AP) fusion proteins containing various Nogo-A segments derived from regions between the amino terminus and the first hydrophobic segment were examined to identify the mechanism of Amino-Nogo-A action. To generate additional AP fusion proteins, human amino Nogo fragments were amplified and ligated to the pcAP6 vector digested with restriction enzymes EcoRI and XhoI as described (Fournier, A. E., et al., Nature 409:341-346 (2001)). Plasmids were then transfected into HEK293T cells and conditioned media were collected after 7 days. None of these fragments bind with high affinity to non-transfected COS-7 cells. […] This binding is saturable with a Kd indistinguishable from that for AP-Nogo-66 association with NgR (Table I). To better define the region responsible for Amino-Nogo interaction with NgR, a range of truncation mutants of Amino-Nogo were examined as AP fusion proteins.
Binding Kds for AP fused Amino-Nogo fragments were measured by applying conditioned media containing AP fusion protein to NgR expressing COS-7 cells. Bound AP was stained and measured.
Molecule B1 returned a Kd of 26.6 nM.
The same measure, in the same setting: then B2, with 4.55 nM.
Still for that read-out and setting: then B3, with 2.69 nM; and B4, with 2.48 nM.
B5: binding was put at a Kd of 3.19 nM.
The molecule B6 showed an equilibrium dissociation constant (Kd) of 2.43 nM. This Kd and that of the molecule before are within 1.5-fold of each other.

The target in another experiment is T2, AP fusion protein with the B4C fragment of Amino-Nogo-A fused directly to Nogo-66 (human, UniProt Q9NQC3 1055-1120).
T2 construct: domain: Nogo-66; also called AP-B4C66; AP-B4C-66; not shown: alkaline phosphatase (AP), vector pcAP6
T2 sequence: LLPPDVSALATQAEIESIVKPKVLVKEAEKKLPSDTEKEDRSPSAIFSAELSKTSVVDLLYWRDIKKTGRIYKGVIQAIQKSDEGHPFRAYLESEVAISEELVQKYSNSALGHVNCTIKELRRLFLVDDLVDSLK
In words: AP-ligand binding, COS-7.
Details: not given
As to B7, the binding result was “no binding”.
Same read-out and setting: then B8, with “no binding”; and B9, with “no binding”; and B10, with “no binding”.

The next experiment deals with T3, AP-fused Amino-Nogo fragment B4C (a.a. 950-1018) (human, UniProt Q9NQC3 950-1018).
T3 construct: also called AmNg B4C; AP-B4C; not shown: alkaline phosphatase (AP), vector pcAP6
T3 sequence: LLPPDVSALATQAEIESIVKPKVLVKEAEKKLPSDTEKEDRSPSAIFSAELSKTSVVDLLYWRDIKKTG
In words: AP-ligand binding, COS-7.
Details: not given
In the case of B7, the binding result was “no binding”.
Consider B8, for which the binding result was “no binding”.
On the same count and under the same terms, as for B9, the entry is “no binding”; as for B10, “no binding”.

The target of a further experiment is T4, AP-Nogo-66 (UniProt Q9NQC3 1055-1120).
T4 construct: domain: Nogo-66; construct described elsewhere (Fournier 2001); also called AP-Ng66; Ng66; not shown: alkaline phosphatase (AP); construct described elsewhere
T4 sequence (looked up): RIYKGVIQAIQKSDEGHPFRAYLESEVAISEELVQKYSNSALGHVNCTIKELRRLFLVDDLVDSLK
As to the kind of experiment: AP-ligand binding, COS-7.
Details: not given
In the case of B7, the binding result is listed as “no binding”.
On the same count and under the same terms, then B8, with “no binding”; and B9, with “no binding”.
On the same count and under the same terms, as for B10, the entry is “no binding”.

The test system of a further experiment is E13 chick DRG neurons. As to the kind of experiment: cDRG neurite outgrowth assay. To be noted: 500 pmol of dried biotinylated peptide per well. Format: cell-based. How it is done:
FIG. 2D. Differential effects of Amino-Nogo fragments on neurite outgrowth. Dissociated neurons from E13 chick DRGs were plated on 96 well dishes coated with lpmol protein per well and stained for neurofilament localization.
FIG. 2E. Neurite length per neuron were measured and plotted as percentage of PBS control with increasing concentration of dried protein for experiment described in […].
FIG. 6C. B24/32 peptide inhibits neurite outgrowth. Dissociated neurons from E13 chick DRG were plated onto 96 well dishes coated with 500 pmol of dried peptides as indicated and stained for neurofilament localization.
FIG. 6D. Neurite length per neuron was measured and plotted as percentage of PBS control for experiments as in (C).
It has been recognized that the Amino-Nogo-A protein inhibits non-neuronal cell spreading and axonal outgrowth when the protein is substrate bound (Chen, M. S., et al., Nature 403:434-439 (2000); Fournier, A. E., et al., Nature 409:341-346 (2001)). […] The later domain has been termed Δ20. To determine whether the NgR-interacting aa of Amino-Nogo-A described in Example 1 regulate cell spreading and axonal outgrowth, various fragments were expressed as GST fusion proteins and purified from E. coli. To generate GST fusion proteins, amino Nogo fragments were cloned in pGEX2T (Amersham Pharmacia). Native and soluble GST fusion proteins were expressed and purified as described (GrandPre, T., et al., Nature 403:439-444 (2000)). COS-7 binding assays were done as described (Fournier, A. E., et al., Nature 409:341-346 (2001)). Bound AP to COS-7 cells was measured using NIH image software. Fibroblast spreading and cDRG outgrowth assay were done as described (Fournier, A. E., et al., Nature 409:341-346 (2001)) with some modifications. Briefly, 50 μl of purified GST fusion protein or peptides diluted in PBS was pipetted into polylysine precoated 96 well plates (Becton Dickson Biocoat plates) and dried overnight at room temperature. For fibroblast spreading assay, subconfluent COS-7 cells were then plated for 1 hour in serum containing medium before fixation and staining with rho damine-phalloidin.
The same GST-Amino-Nogo proteins were tested for their ability to reduce neurite outgrowth from chick E13 DRG neurons. For cDRG outgrowth assay, dissociated E13 cDRG neurons were plated for 6 hours before fixation. […] Cell area, number of attached cells and neurite length were measured using the Imageexpress machine and software (Axon Instrument).
We reasoned that fusing the 24 aa segment of Amino-Nogo-A to NEP32 antagonist peptide might create a high affinity antagonist with a potency similar to the binding of AP-B4C-66 to NgR. […] Cell area, number of attached cells and neurite length were measured using the linageexpress machine and software (Axon Instrument).
On to “biotin-IFSAELSKTSVVDLLYWRDIKKTGGRIYKGVIQAIQKSDEGHP FRAYLESEVAISEE [24-32 fusion peptide]”, for which the “axon outgrowth from DRG neurons” value is recorded as “potently inhibited axon outgrowth”.

The experiment is the same for the next values; noted with them: biotinylated peptide; FIGS. 6C and 6D.
Consider “Biotin-IFSAELSKTSVVDLLYWRDIKKTG [carboxyl 24 aa segment of Amino-Nogo-A]”, for which the “effect on Nogo-66 action on neurite outgrowth” value was “does not block or enhance Nogo-66 action on neurite outgrowth”.

The next experiment has as its system NgR ligands. As to the kind of experiment: Binding of alanine substituted NgR mutants to NgR ligands, summary categories. To be noted: AP-Nogo66, AP-B4C, AP-B4C66, AP-Lingo-1, AP-OMgp and AP-MAG; compared to wild type NgR. In outline: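 Human NgR1 template; 74 mutants with 1-8 solvent-exposed charged surface residues (within 5 Å) Ala-substituted, plus glycosylation-site mutants and D259N polymorphism. Mutants tested for binding of AP-tagged Nogo66, Amino-Nogo-B4C, B4C66, MAG, OMgp and Lingo-1; each classed as losing all, keeping all, or selective ligand binding.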
For the molecule B7, the “ligand binding category of NgR mutant (Table II)” value was “No binding”.
Same read-out and setting: as for B8, the entry is “No binding”; as for B9, “No binding”; as for B10, “No binding”.
